Laboratory results: PMC10228819, “Changing course: Glucose starvation drives nuclear accumulation of Hexokinase 2 in S. cerevisiae” (PLOS Genetics, 2023)

Tests used:
[1] = biological target: Hxk2 (hexokinase 2, ScHxk2) (UniProt P04807); test: size exclusion chromatography; conditions: reference: wild type Hxk2, no glucose; sites S15
[2] = biological target: the molecule itself; test: SEC; TOSOH G2000 SWXL column on HPLC; 40 μg protein in 50 μl; hexokinase buffer (20 mM HEPES, 5 mM Mg acetate, 100 mM NaCl, 0.5 mM EDTA, 0.5 mM DTT) without glucose, no ATP; 1 mL/min

## Hxk2 (hexokinase 2, ScHxk2) (from UniProt P04807) Hxk2 S15D, no glucose
[1]
  other: SEC elution volume: lost; reference ~8.8

B1: Recombinant Hxk2, wild type, with C-terminal 6-histidine tag (enzyme, S. cerevisiae)
chain: MVHLGPKKPQARKGSMADVPKELMQQIENFEKIFTVPTETLQAVTKHFISELEKGLSKKGGNIPMIPGWVMDFPTGKESGDFLAIDLGGTNLRVVLVKLGGDRTFDTTQSKYRLPDAMRTTQNPDELWEFIADSLKAFIDEQFPQGISEPIPLGFTFSFPASQNKINEGILQRWTKGFDIPNIENHDVVPMLQKQITKRNIPIEVVALINDTTGTLVASYYTDPETKMGVIFGTGVNGAYYDVCSDIEKLQGKLSDDIPPSAPMAINCEYGSFDNEHVVLPRTKYDITIDEESPRPGQQTFEKMSSGYYLGEILRLALMDMYKQGFIFKNQDLSKFDKPFVMDTSYPARIEEDPFENLEDTDDLFQNEFGINTTVQERKLIRRLSELIGARAARLSVCGIAAICQKRGYKTGHIAADGSVYNRYPGFKEKAANALKDIYGWTQTSLDDYPIKIVPAEDGSGAGAAVIAALAQKRIAEGKSVGIIGA
notes: Hexokinase 2 (Hxk2), S. cerevisiae, cloned into pET14b; also called WT Hxk2; purified Hxk2; source: E. coli, purified (Ni-NTA)
[2]
  stoichiometry N: 2
